The record followed here is the nanobody polyreactivity screen of Harvey et al. (2022).

The data set in a line: yeast display, Sf9 membrane polyspecificity reagent, FACS + sequencing; frameworks hold sequencing errors. In short, it runs like this:
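Galactose induction of a Saccharomyces cerevisiae BJ5465 synthetic nanobody display library ran 36–48 hours. The cells were then stained for 1 hour at 4 °C with 10% biotinylated, detergent-solubilized Sf9 membrane reagent, pulled down on streptavidin microbeads and FACS-sorted into low and high (top ~1%) gates on expression and reagent-binding fluorescence. Labels for polyreactivity follow the gate of origin.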
For the sequence “QVQLVESGGGLVQAGGSLRLSCAASGIIFAQYTMGWYRQAPGKERELVAAINRNGGSTYYADSVKGRFTISRDNAKNTVYLQMNSLKPEDNAVYYCIADALGFRFDYWGQGTQVTVSS”, the “polyreactivity (PSR sort gate)” value is “low polyreactivity”.
Consider “QVQLVESGGGLVQAGGSLRLSCAASGIIFARNAMGWYRQAPGKERELVATISRNGGRTYYADSVKGRFTISRDNAKNTVYLQMNSLKPEDTAVYYCARPYYGSWHSYGVDYWGQGTQVTVSS”, for which the “polyreactivity (PSR sort gate)” value was “high polyreactivity”.
Under “QVQLVESGGGLVQAGGSLRLSCAASGIIFARYAMGWYRQAPGKERELVAAISNRGTSTYYADSVKGRFTISRDNAKNTVYLQMNSLKPEDTAVYYCKRVKDGYWGQGTQVTVSS” stands “high polyreactivity”; under “QVQLVESGGGLVQAGGSLRLSCAASGIIFARYAMGWYRQAPGKERELVAAITRRAVSTYYADSVKGRFTISRDNAKNTVYLQMNSLKPEDTAVYYCAADRASYFTYAYGYWGQGTQVTVSS”, “high polyreactivity”; under “QVQLVESGGGLVQAGGSLRLSCAASGIIFAYNAMGWYRQAPGKERELVAAISVIGGTTYYADSVKGRFTISRDNAKNTVYLQMHSLKPEDTAVYYCAVDSVQYGGGYERLHELYYWGQGTQVTVSS”, “low polyreactivity”.
For “QVQLVESGGGLVQAGGSLRLSCAASGIIFAYNAMGWYRQAPGNERELVAAITSGTSTHYADSVKGRFTISRDNAKNTVYLQMNSLKPEDTAVYYCAKVYSYFNPRTYKPSFAGSDYWGQGTQVTVSS” the value was “low polyreactivity”; for “QVQLVESGGGLVQAGGSLRLSCAASGIIFAYYAMGWYRQAPGKETELVAAINRSGGTTYYADSVKGRFTISRDNAKNTVYLQMNSLKPEDTAVYYCNALTTWRYRYDYWGQGTQVTVSS”, “high polyreactivity”; for “QVQLVESGGGLVQAGGSLRLSCAASGIIFAYYTMGWYRQAPGKLRELVAAISWNGGRTYYADSVKGRFTISRDNAKNTVYLQINSLKPEDTAVYYCAARDASSFLRSYYWGQGTQVTVSS”, “high polyreactivity”.
Under “QVQLVESGGGLVQAGGSLRLSCAASGIIFDEYAMGWYRQAPGKERELVATISSGGDTNYADSVKGRFTISRDNAKHTFYLQMNSLKPEDTALYYCAATVYDGYSPYDYDYWGQGTQVTVSS” stands “low polyreactivity”; under “QVQLVESGGGLVQAGGSLRLSCAASGIIFDGYAMGWYRQAPGKEREFVAAITSGGGSTSYADSVKGRFTISRDNAKNTVYLQMNSLKPEDTAVYSCAARSNRFYVRQRYGYWGQGTQVTVSS”, “high polyreactivity”; under “QVQLVESGGGLVQAGGSLRLSCAASGIIFDGYVMGWYRQAPGNERELVAAISRSGGRTFYADSVKGRFTISRDNAKNTVYLQMNSLKPEATAVYYCAARRVRTRGYNYWGQGTQVTVSS”, “high polyreactivity”.
Consider “QVQLVESGGGLVQAGGSLRLSCAASGIIFDLNAMGWYRQAPGKERELVAAISSGGGTYYADSVKGRFTISRDNAKNTVYLQMNSLKPEDTAVYYCNRVTRWTYNYWGQGTLVTVSS”, for which the “polyreactivity (PSR sort gate)” value is “high polyreactivity”.
On to “QVQLVESGGGLVQAGGSLRLSCAASGIIFDPYAMGWYRQAPGKERELVADIDNASSTYYADSVKGRFTISRDNAKNTVYLQMNSLKPEDTAVYYCTADLWYGGEYWGQGTQVTVSS”, for which the “polyreactivity (PSR sort gate)” value is given as “low polyreactivity”.
For “QVQLVESGGGLVQAGGSLRLSCAASGIIFDSYAMGWYRQAPGKERELVAAISTSGGSTYYADSVKGRFTISRDNAKNTVYLQMNSLKPEDTEVYYCAARYAVSRYRFGFNYWGQGTQVTVSS” the value was “high polyreactivity”.
Under “QVQLVESGGGLVQAGGSLRLSCAASGIIFDSYTMGWYRQAPGKERELVAAISVSGGSTYYADSVKGRFTISRDNAKNTVYLQMNSLKPEDTAVYYCATVPSLPDYDSWGQGTQVTVSS” stands “low polyreactivity”; under “QVQLVESGGGLVQAGGSLRLSCAASGIIFDWYAMGWYRQAPGKERELVAAISYSGGTTYYADSVKGRFTISRDNAKNTVYFQMNSLTPEDTAVYYCAARYEGAAANYVEYGYWGLGTQVTVSS”, “low polyreactivity”.
As for “QVQLVESGGGLVQAGGSLRLSCAASGIIFDYNAMGWYRQAPGKERELVAAITSTDNTNYADSVKGRFTISRDNAKNTVYLQMNSLKPEDTAVYYCNSVYWLSVVYAMDYWGQGTQVTVSS”, the “polyreactivity (PSR sort gate)” value is listed as “low polyreactivity”.
Under “QVQLVESGGGLVQAGGSLRLSCAASGIIFDYNAMGWYRQAPGKERELVAAITSTDNTNYADSVKGRFTISRDNAKNTVYLQMNSLKPEDTAVYYCNTDYLLCVVYAMDYCGQGTQVTVSS” stands “low polyreactivity”; under “QVQLVESGGGLVQAGGSLRLSCAASGIIFDYYDMGWYRQAPGKERELVAAISDDGGSTYYADSVKGRFTISRDNAKNTVYLQMNSLKPEDTAVYYCAADSYYAYPYGYGYWGQGTQVTVSS”, “high polyreactivity”; under “QVQLVESGGGLVQAGGSLRLSCAASGIIFEGNVMGWYRQAPGKERELVAAITSDTSTNYADSVKGRFTISRDNAKNSVYLQMNSLKPEDTAVYYCDALRRYPRPNIYGYWGQGTQVTVSS”, “low polyreactivity”.
Under “QVQLVESGGGLVQAGGSLRLSCAASGIIFEYYAMGWYRQAPGKERELVAAISKRGGSTYYADSVKGRFTISRDNAKNTVYLQMNSLKPEDTAVYYCNARRWWVIRDYWGQGTQVTVSS” stands “high polyreactivity”; under “QVQLVESGGGLVQAGGSLRLSCAASGIIFEYYDRGWYRQAPGKERELVAAIDSGGSTYYADSVKGRFTISRDNAKNTVYLQMNSLKPEDTAVYYCAAETVRYDWGESPAALFDYWGQGTQVTVSS”, “low polyreactivity”.
On to “QVQLVESGGGLVQAGGSLRLSCAASGIIFEYYTMGWYRQAPGNERELVASITYDGDSTYYADSVKGRFTISRDHAKNTVYLQINSLKPEDTAVYFCAADYYYVYSSFGHYYWGQGTQVTVSS”, for which the “polyreactivity (PSR sort gate)” value is recorded as “low polyreactivity”.
Under “QVQLVESGGGLVQAGGSLRLSCAASGIIFFDYAMGWYRQAPGKERELVAAITSSGGSTYYADSVKGRFTISRDNAKNTVYLQMNSLKPEDTAVYYCAAATRGSGRRNDYWGQGTQVTVSS” stands “high polyreactivity”; under “QVQLVESGGGLVQAGGSLRLSCAASGIIFFIYAMGWYRQAPGKERELVARISWRGGSTSYADSVKGRFTISRDNAKNTVYLQMNSLKPEDTAVYYCAAGVYSFRYDSWGQGTQVTVSS”, “low polyreactivity”; under “QVQLVESGGGLVQAGGSLRLSCAASGIIFFKYAKGWYRQAPGKEKELVAAITSGGSTYYADSVKGRFTISRDNAKHTVYLQMNSLKPEDTAFYYCAAAGGRFIRYGYWGQGTQVTVSS”, “high polyreactivity”.
For “QVQLVESGGGLVQAGGSLRLSCAASGIIFFKYAMGWYRQAPGKERQLVAAITSGGSTYYADSVKGRFTISRDNEKNTVYLQMNSLKPVDTAVYYCAAAGGRFIRYGYWGQGTQVTVSS” the value was “high polyreactivity”.
Under “QVQLVESGGGLVQAGGSLRLSCAASGIIFFRNAMGWYRQAPGKERELVAAISSGGSTYYADSVKGRFTISRDNAKNTVYLQMNSLKPEDTAVYYCNKVVPLYYASYDYWGQVTQVTVSS” stands “low polyreactivity”; under “QVQLVESGGGLVQAGGSLRLSCAASGIIFFRNPMGWYRQAPGKERELVAAISSGGSTYYADSVKGRFTISRDNAKNTVYLQMNSLKPEDTAVYYCNQVGPLYYASYDYWGQGTQGTVSS”, “low polyreactivity”; under “QVQLVESGGGLVQAGGSLRLSCAASGIIFGDYAMGWYRQAPGKERELVAGISITGDSTYYADSVKGRFTISRDNAKNTVYLQMNSLKPEDTAVSYCAAGWALIFDYWGQGTQVTVSS”, “low polyreactivity”.
